Starred links: 1 amine or outer side, 2 acyl side, 3 side chain; linkers in the order of their positions; H or OH if unused. Positions of bridges follow the written chain, without caps; N, C: chain ends. Non-standard residues stand in square brackets, D forms with d. Primed or numbered codes have the meaning given here. No end group written: not given here. Phe(4-OMe) = COc1ccc(C[C@H](N[*:1])C(=O)[*:2])cc1; Phe(3-CF3) = N[C@@H](Cc1cccc(C(F)(F)F)c1)C(=O)O; Phe(4-CF3) = N[C@@H](Cc1ccc(C(F)(F)F)cc1)C(=O)O; Phe(F5) = N[C@@H](Cc1c(F)c(F)c(F)c(F)c1F)C(=O)O; Bpa = N[C@@H](Cc1ccc(C(=O)c2ccccc2)cc1)C(=O)O; Tyr(3-Cl) = N[C@@H](Cc1ccc(O)c(Cl)c1)C(=O)O; Bip = N[C@@H](Cc1ccc(-c2ccccc2)cc1)C(=O)O; Tyr(3-F) = N[C@@H](Cc1ccc(O)c(F)c1)C(=O)O; Tyr(3-I) = N[C@@H](Cc1ccc(O)c(I)c1)C(=O)O; Phe(3-OMe) = COc1cccc(C[C@H](N)C(=O)O)c1; Phe(3-Me) = Cc1cccc(C[C@H](N)C(=O)O)c1; Hyp = O=C(O)[C@@H]1C[C@@H](O)CN1; hPhe = N[C@@H](CCc1ccccc1)C(=O)O; 2Pal = N[C@@H](Cc1ccccn1)C(=O)O; 4Pal = N[C@@H](Cc1ccncc1)C(=O)O; NDecylGly = CCCCCCCCCCNCC(=O)O; Phe(4-Et)′ = not defined here; Phg = N[C@H](C(=O)O)c1ccccc1; Tle = CC(C)(C)[C@H](N)C(=O)O; Ad = adenosine base unit; Gu = guanosine base unit; Nle = CCCC[C@H](N)C(=O)O; nTyr = not defined here; Dht = not defined here; Taz = not defined here; Inp = O=C(O)C1CCNCC1
B1: F-H-C-Hyp-Y(3-I)-D-L-C-Taz-I (peptide)
peptide: FHC[Hyp][Tyr(3-I)]DLC[Taz]I
modifications: disulfide 3-8 (inferred); reading uncertain; also: printed as F-H-C-Hyp-Y(3-I)-D-L-C-Taz-I
B2: F-H-C-Hyp-Y(3-I)-D-L-C-Dht-I (peptide)
peptide: FHC[Hyp][Tyr(3-I)]DLC[Dht]I
modifications: disulfide 3-8 (inferred); reading uncertain; also: printed as F-H-C-Hyp-Y(3-I)-D-L-C-Dht-I

Target: DD(E) fragment of fibrin
Test: affinity to DD(E) fragment of fibrin

Binder | Kd [nM]
[Phe(4-OMe)]HC[Hyp]YDLCHIL (disulfide 3-8 (inferred)) [F(4-OMe)-H-C-Hyp-Y-D-L-C-H-I-L] | < 400
[Phe(4-OMe)][His(Bzl)]C[Hyp][Tyr(3-Cl)]DLCH[Bpa] (disulfide 3-8 (inferred)) [F(4-OMe)-H(Bzl)-C-Hyp-Y(3-Cl)-D-L-C-H-Bpa] | < 100
FHC[Hyp][Tyr(3-I)]DLCH[Phg] (disulfide 3-8 (inferred)) [F-H-C-Hyp-Y(3-I)-D-L-C-H-Phg] | < 200
B1 | < 500
[Gu]HC[Hyp][Tyr(3-I)]DLCHI (disulfide 3-8 (inferred)) [Gu-H-C-Hyp-Y(3-I)-D-L-C-H-I] | < 500
[hPhe]HC[Hyp][Tyr(3-I)]DLCHI (disulfide 3-8 (inferred)) [Hfe-H-C-Hyp-Y(3-I)-D-L-C-H-I] | < 100
F[dE]C[Hyp][Tyr(3-Cl)]GLCWIQ (disulfide 3-8 (inferred)) [F-(D-E)-C-Hyp-Y(3-Cl)-G-L-C-W-I-Q] | < 300
FHC[Hyp][Tyr(3-F)]DLCHIL (disulfide 3-8 (inferred)) [F-H-C-Hyp-Y(3-F)-D-L-C-H-I-L] | < 100
FHC[Hyp][Tyr(3-I)]DLCH[nVal] (disulfide 3-8 (inferred)) [F-H-C-Hyp-Y(3-I)-D-L-C-H-nVal] | < 200
FHC[Hyp]YDLCH[Bpa] (disulfide 3-8 (inferred)) [F-H-C-Hyp-Y-D-L-C-H-Bpa] | < 300
WEC[Hyp][Tyr(3-Cl)]GLCWIQ (disulfide 3-8 (inferred)) [W-E-C-Hyp-Y(3-Cl)-G-L-C-W-I-Q] | < 100
[hPhe]HC[Hyp]YDLCHIL (disulfide 3-8 (inferred)) [Hfe-H-C-Hyp-Y-D-L-C-H-I-L] | < 500
[Phe(3-OMe)]HC[Hyp][Tyr(3-I)]DLCHI (disulfide 3-8 (inferred)) [F(3-OMe)-H-C-Hyp-Y(3-I)-D-L-C-H-I] | < 100
[Bip]HC[Hyp]YDLCHIL (disulfide 3-8 (inferred)) [Bip-H-C-Hyp-Y-D-L-C-H-I-L] | < 500
FHC[Hyp][Tyr(3-I)]DLCH[Phe(4-Et)′] (disulfide 3-8 (inferred)) [F-H-C-Hyp-Y(3-I)-D-L-C-H-F(4-Et)] | < 100
WECPYGLCWIQ (disulfide 3-8 (inferred)) [W-E-C-P-Y-G-L-C-W-I-Q] | < 200
FHC[Hyp][Tyr(3-I)]DLCH[Tle] (disulfide 3-8 (inferred)) [F-H-C-Hyp-Y(3-I)-D-L-C-H-Tle] | < 100
[Tyr(3-Cl)]HC[Hyp][Tyr(3-I)]DLCHI (disulfide 3-8 (inferred)) [Y(3-Cl)-H-C-Hyp-Y(3-I)-D-L-C-H-I] | < 100
FHC[Hyp][Tyr(3-I)]DLCH[Phe(3-Me)] (disulfide 3-8 (inferred)) [F-H-C-Hyp-Y(3-I)-D-L-C-H-F(3-Me)] | < 200
FHC[Hyp][Tyr(3-I)]DLCH[Phe(4-CF3)] (disulfide 3-8 (inferred)) [F-H-C-Hyp-Y(3-I)-D-L-C-H-F(4-CF3)] | < 100
[Ad]HC[Hyp][Tyr(3-I)]DLCHI (disulfide 3-8 (inferred)) [Ad-H-C-Hyp-Y(3-I)-D-L-C-H-I] | < 400
FHCP[Tyr(3-Cl)]DLCHIL (disulfide 3-8 (inferred)) [F-H-C-P-Y(3-Cl)-D-L-C-H-I-L] | < 200
LPCDYYGTC[MeL][Inp] (cysteine pairing not given here) [L-P-C-D-Y-Y-G-T-C-MeL-Inp] | < 10000
Y[dE]C[Hyp][Tyr(3-Cl)]GLCWIQ (disulfide 3-8 (inferred)) [Y-(D-E)-C-Hyp-Y(3-Cl)-G-L-C-W-I-Q] | < 100

Binder | Kd [nM]
B2 | < 500
LPCDYYGTC[NDecylGly][dD] (not fully specified; cysteine pairing not given here) [L-P-C-D-Y-Y-G-T-C-n(Decyl)G-dD] | < 10000
[Phe(4-OMe)]HC[Hyp][Tyr(3-I)]DLCHIL (disulfide 3-8 (inferred)) [F(4-OMe)-H-C-Hyp-Y(3-I)-D-L-C-H-I-L] | < 100
[Phe(F5)]HC[Hyp][Tyr(3-I)]DLCHI (disulfide 3-8 (inferred)) [F(F5)-H-C-Hyp-Y(3-I)-D-L-C-H-I] | < 100
FHC[Hyp][Tyr(3-Cl)]DLCHIL (disulfide 3-8 (inferred)) [F-H-C-Hyp-Y(3-Cl)-D-L-C-H-I-L] | < 100
FHC[Hyp][Tyr(3-I)]DLC[4Pal]I (disulfide 3-8 (inferred)) [F-H-C-Hyp-Y(3-I)-D-L-C-4Pal-I] | < 200
YEC[Hyp][Tyr(3-Cl)]GLCWIQ (disulfide 3-8 (inferred)) [Y-E-C-Hyp-Y(3-Cl)-G-L-C-W-I-Q] | < 300
FHC[Hyp][Tyr(3-I)]DLCH[Phe(4-OMe)] (disulfide 3-8 (inferred)) [F-H-C-Hyp-Y(3-I)-D-L-C-H-F(4-OMe)] | < 100
FHC[Hyp][Tyr(3-I)]DLCH[hPhe] (disulfide 3-8 (inferred)) [F-H-C-Hyp-Y(3-I)-D-L-C-H-Hfe] | < 100
FHC[Hyp][Tyr(3-I)]DLC[Bpa]I (disulfide 3-8 (inferred)) [F-H-C-Hyp-Y(3-I)-D-L-C-Bpa-I] | < 400
LPCDYYGTC[NDecylGly]D (not fully specified; cysteine pairing not given here) [L-P-C-D-Y-Y-G-T-C-n(Decyl)G-D] | < 10000
[nTyr]HC[Hyp][Tyr(3-I)]DLCHI (disulfide 3-8 (inferred); reading uncertain) [nTyr-H-C-Hyp-Y(3-I)-D-L-C-H-I] | < 100
FHC[Hyp][Tyr(3-I)]DLCH[Nle] (disulfide 3-8 (inferred); not fully specified) [F-H-C-Hyp-Y(3-I)-D-L-C-H-Nle] | < 100
FHC[Hyp][Tyr(3-I)]DLCH[Bip] (disulfide 3-8 (inferred)) [F-H-C-Hyp-Y(3-I)-D-L-C-H-Bip] | < 100
[Phe(4-OMe)][His(Bzl)]C[Hyp][Tyr(3-I)]DLCHI (disulfide 3-8 (inferred)) [F(4-OMe)-H(Bzl)-C-Hyp-Y(3-I)-D-L-C-H-I] | < 100
[dF][dE]C[Hyp][Tyr(3-Cl)]GLCWIQ (disulfide 3-8 (inferred)) [(D-F)-(D-E)-C-Hyp-Y(3-Cl)-G-L-C-W-I-Q] | < 200
FHC[Hyp][Tyr(3-I)]DLCH[Bpa] (disulfide 3-8 (inferred)) [F-H-C-Hyp-Y(3-I)-D-L-C-H-Bpa] | < 100
FHC[Hyp][Tyr(3-I)]DLCH[Phe(3-OMe)] (disulfide 3-8 (inferred)) [F-H-C-Hyp-Y(3-I)-D-L-C-H-F(3-OMe)] | < 100
FHC[Hyp][Tyr(3-I)]DLC[2Pal]I (disulfide 3-8 (inferred)) [F-H-C-Hyp-Y(3-I)-D-L-C-2Pal-I] | < 500
FEC[Hyp][Tyr(3-Cl)]GLCWIQ (disulfide 3-8 (inferred)) [F-E-C-Hyp-Y(3-Cl)-G-L-C-W-I-Q] | < 500
FHC[Hyp]YDLCHIL (disulfide 3-8 (inferred)) [F-H-C-Hyp-Y-D-L-C-H-I-L] | < 500
[Phe(3-CF3)]HC[Hyp][Tyr(3-I)]DLCHI (disulfide 3-8 (inferred)) [F(3-CF3)-H-C-Hyp-Y(3-I)-D-L-C-H-I] | < 100
[Tyr(26-Me)]HC[Hyp][Tyr(3-I)]DLCHI (disulfide 3-8 (inferred)) [Y(26-Me)-H-C-Hyp-Y(3-I)-D-L-C-H-I] | < 200
FHCPYDLCHIL (disulfide 3-8 (inferred)) [F-H-C-P-Y-D-L-C-H-I-L] | < 300
